Laboratory results from patent publication US20140086916A1 (Merck Sharp & Dohme, published 2014).
Like-named read-outs stand apart in the source and are kept apart here.

T1: FcγRIIb (Pichia pastoris produced) (UniProt P31994 43-217, limits assumed)
T1 construct: also called FcgRIIB; CD32B
T1 sequence (looked up): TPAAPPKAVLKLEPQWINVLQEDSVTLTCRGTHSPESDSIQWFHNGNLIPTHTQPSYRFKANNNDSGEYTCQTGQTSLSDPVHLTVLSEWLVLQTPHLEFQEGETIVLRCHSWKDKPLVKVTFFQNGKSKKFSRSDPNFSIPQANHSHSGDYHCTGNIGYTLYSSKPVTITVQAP

T2: FcγRIIa (Pichia pastoris produced) (UniProt P12318 34-217, limits assumed)
T2 construct: also called CD32A
T2 sequence (looked up): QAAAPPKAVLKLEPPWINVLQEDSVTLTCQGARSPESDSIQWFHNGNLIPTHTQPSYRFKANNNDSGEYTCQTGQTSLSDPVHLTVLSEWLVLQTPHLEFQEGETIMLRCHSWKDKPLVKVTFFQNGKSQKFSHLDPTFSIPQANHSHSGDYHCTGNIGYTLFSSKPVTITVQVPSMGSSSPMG

B1: 1F11 wildtype (parent) humanized anti-PCSK9 monoclonal IgG1 antibody (antibody)
heavy: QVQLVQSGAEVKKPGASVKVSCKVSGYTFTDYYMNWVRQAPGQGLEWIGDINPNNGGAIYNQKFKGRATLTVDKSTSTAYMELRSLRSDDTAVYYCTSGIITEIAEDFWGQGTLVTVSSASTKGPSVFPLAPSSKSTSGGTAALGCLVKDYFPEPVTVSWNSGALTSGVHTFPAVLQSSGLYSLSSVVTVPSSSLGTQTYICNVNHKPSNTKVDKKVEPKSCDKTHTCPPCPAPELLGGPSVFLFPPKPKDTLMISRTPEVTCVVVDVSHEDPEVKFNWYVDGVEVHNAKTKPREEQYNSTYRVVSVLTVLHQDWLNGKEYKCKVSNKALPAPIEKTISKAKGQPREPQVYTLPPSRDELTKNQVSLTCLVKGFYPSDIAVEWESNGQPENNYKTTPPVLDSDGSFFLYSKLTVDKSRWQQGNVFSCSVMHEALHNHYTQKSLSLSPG
light: DIQMTQSPSSLSASVGDRVTITCKASQNVGTNVVWYQQKPGKAPKALIHSASYRYSGVPSRFSGSGSGTDFTLTISSLQPEDFATYYCQQYKTYPYTFGQGTKVEIKRTVAAPSVFIFPPSDEQLKSGTASVVCLLNNFYPREAKVQWKVDNALQSGNSQESVTEQDSKDSTYSLSSTLTLSKADYEKHKVYACEVTHQGLSSPVTKSFNRGEC
notes: Produced in glycoengineered Pichia pastoris GFI5.0 (strain YGLY21351); also called 1F11 IgG1 GS5.0; YGLY21351
B2: 1F11 IgG1 F243A/V264A double mutein anti-PCSK9 antibody (antibody)
heavy: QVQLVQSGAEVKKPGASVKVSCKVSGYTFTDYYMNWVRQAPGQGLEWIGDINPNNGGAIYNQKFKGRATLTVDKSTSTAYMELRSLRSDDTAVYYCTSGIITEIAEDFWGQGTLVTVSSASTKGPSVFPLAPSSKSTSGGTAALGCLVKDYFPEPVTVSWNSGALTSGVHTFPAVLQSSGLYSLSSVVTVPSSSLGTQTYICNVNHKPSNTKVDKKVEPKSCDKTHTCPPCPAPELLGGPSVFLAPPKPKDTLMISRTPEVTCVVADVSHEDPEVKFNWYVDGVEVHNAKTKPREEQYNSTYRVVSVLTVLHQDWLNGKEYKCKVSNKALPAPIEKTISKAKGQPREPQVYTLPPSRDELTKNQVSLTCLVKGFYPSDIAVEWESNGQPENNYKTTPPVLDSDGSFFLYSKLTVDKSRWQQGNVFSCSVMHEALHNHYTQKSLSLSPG
light: B1 light
notes: sialylated N-glycans; also called 1F11 DM; YGLY23258

How the values were obtained:
[1] = biological target: T3, FcγRIIIa-F158 (Pichia pastoris produced) (UniProt P08637 17-208, limits assumed); experiment: ELISA-type plate assay, FcγR coated, antibody dimerized with AP-conjugated goat anti-human IgG F(ab')2, RFU readout
T3 construct: also called FcγRIIIA LF; FcgRIIIA LF
Procedure: (§1) Fcγ receptor binding assays were carried out as described (Shields, et al. (2001) J. Biol. Chem. 276:6591-6604) with minor modifications. High protein binding 96-well plates (Corning Costar) were coated with 100 μL per well of Fcγ receptor solutions in PBS at the following concentrations: 1 μg/mL for both FcγRI (R&D Systems) and FcγRIIa (Pichia pastoris produced), 2 μg/mL for FcγRIIb (P. pastoris produced), 0.8 μg/mL for FcγRIIIa-F158, and 0.4 μg/mL for FcγRIIIa-V158 (both P. pastoris produced). All Pichia pastoris produced receptors were expressed and purified as described (Li, et al. (2006) Nature Biotechnology 24:210-215). Monomeric antibody samples added to the FcγRI plate were serially diluted in assay diluent (1×PBS, 1% BSA, and 0.05% Tween20) and 100 μL, per well was added to the plate. Antibody samples prepared for the remaining receptors require a one hour dimerization step with half molar ratio of goat anti-human IgG F(ab′)2 F(ab′)2 that is conjugated with alkaline phosphatase for detection. These dimerized F(ab′)2/antibody complexes were also serially diluted and 100 μL per well were added to the remaining receptor plates and all plates were incubated for one hour at room temperature. FcγRI bound sample antibody was detected using the same goat anti-human IgG F(ab′)2 alkaline phosphatase conjugated F(ab′)2. Sample antibody binding was quantified by measuring excitation at 340 nm and emission at 465 nm after 18 hour incubation with SuperPhos, 4-MUP Fluorescence AP Substrate Detection System (Virolabs).

[2] = biological target: T1, FcγRIIb (Pichia pastoris produced); experiment: as above
Procedure: as §1

[3] = biological target: T3, FcγRIIIa-F158 (Pichia pastoris produced); experiment: as above; remark: listed apart in the source
Procedure: as §1

[4] = biological target: T1, FcγRIIb (Pichia pastoris produced); experiment: as above; remark: listed apart in the source
Procedure: as §1

[5] = biological target: T3, FcγRIIIa-F158 (Pichia pastoris produced); experiment: as above; remark: listed apart in the source
Procedure: as §1

[6] = biological target: T2, FcγRIIa (Pichia pastoris produced); experiment: as above
Procedure: as §1

[7] = biological target: T3, FcγRIIIa-F158 (Pichia pastoris produced); experiment: as above; remark: listed apart in the source
Procedure: as §1

FcγRI (R&D Systems) [8] = biological target: T4, FcγRI (R&D Systems) (UniProt P12314 16-288); experiment: ELISA-type plate assay, FcγRI coated, monomeric antibody, detected with AP-conjugated goat anti-human IgG F(ab')2, RFU readout
T4 construct: Bought reagent, coated on the plate at 1 µg/mL; also called Fc gamma receptor I; CD64
Procedure: as §1, with “These dimerized F(ab′)2/antibody complexes were also serially diluted and 100 μL per well were added to the remaining receptor plates and all plates were incubated for one hour at room temperature.” left out

FcγRI (R&D Systems) [9] = biological target: T4, FcγRI (R&D Systems); experiment: as above; remark: listed apart in the source
Procedure: as §1, with “These dimerized F(ab′)2/antibody complexes were also serially diluted and 100 μL per well were added to the remaining receptor plates and all plates were incubated for one hour at room temperature.” left out

FcγRI (R&D Systems) [10] = biological target: T4, FcγRI (R&D Systems); experiment: summary of the FcγR ELISAs
Procedure: as §1

[11] = biological target: T3, FcγRIIIa-F158 (Pichia pastoris produced); experiment: summary of the FcγR ELISAs
Procedure: as §1

[12] = biological target: T5, FcγRIIIa-V158 (Pichia pastoris produced) (UniProt P08637 17-208, limits assumed); experiment: summary of the FcγR ELISAs
T5 construct: also called FcγRIIIA LV; FcgRIIIA LV
Procedure: as §1

[13] = biological target: T3, FcγRIIIa-F158 (Pichia pastoris produced); experiment: fold change of the Table 12 affinities
Procedure: as §1

[14] = biological target: T5, FcγRIIIa-V158 (Pichia pastoris produced); experiment: fold change of the Table 12 affinities
Procedure: as §1

[15] = biological target: T3, FcγRIIIa-F158 (Pichia pastoris produced); experiment: ELISA on plate-coated receptor; antibody dimerized with anti-human IgG F(ab')2-AP; ELISA IC50, YGLY23258 (dimer), Table 6 experiment
Procedure: as §1, with “These dimerized F(ab′)2/antibody complexes were also serially diluted and 100 μL per well were added to the remaining receptor plates and all plates were incubated for one hour at room temperature.” left out

[16] = biological target: T5, FcγRIIIa-V158 (Pichia pastoris produced); experiment: as above
Procedure: as §1, with “These dimerized F(ab′)2/antibody complexes were also serially diluted and 100 μL per well were added to the remaining receptor plates and all plates were incubated for one hour at room temperature.” left out

T4 sequence (P12314 16-288 limits assumed): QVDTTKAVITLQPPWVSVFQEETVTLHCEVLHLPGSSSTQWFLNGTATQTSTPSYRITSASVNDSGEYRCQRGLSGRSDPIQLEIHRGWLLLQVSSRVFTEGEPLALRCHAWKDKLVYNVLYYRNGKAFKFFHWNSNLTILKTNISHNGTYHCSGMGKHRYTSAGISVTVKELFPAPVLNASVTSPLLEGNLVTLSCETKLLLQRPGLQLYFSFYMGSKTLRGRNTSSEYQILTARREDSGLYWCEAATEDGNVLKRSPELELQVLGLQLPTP
T3 sequence (P08637 17-208 limits assumed): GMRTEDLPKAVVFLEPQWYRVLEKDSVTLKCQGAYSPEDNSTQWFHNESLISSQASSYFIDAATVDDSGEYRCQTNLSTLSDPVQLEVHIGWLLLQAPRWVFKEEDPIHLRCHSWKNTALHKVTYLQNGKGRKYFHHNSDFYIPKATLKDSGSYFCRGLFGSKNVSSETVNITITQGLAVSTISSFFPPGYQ
T5 sequence (P08637 17-208 F176V limits assumed): as the sequence (P08637 17-208 limits assumed) above, with F160V counted along it

| Binder | EC50 (read off the curve) [1] [µg/mL] | EC50 (read off the curve) [2] [µg/mL] | EC50 (read off the curve) [3] [µg/mL] | EC50 (read off the curve) [4] [µg/mL] | EC50 (read off the curve) [5] [µg/mL] | EC50 (read off the curve) [6] [µg/mL] | EC50 (read off the curve) [7] [µg/mL] | EC50 (read off the curve) (FcγRI (R&D Systems) [8]) [µg/mL] | EC50 (read off the curve) (FcγRI (R&D Systems) [9]) [µg/mL] | decreased affinity fold vs wildtype parent antibody produced in GS 5.0 (FcγRI (R&D Systems) [10]) [fold] | decreased affinity fold vs wildtype parent antibody produced in GS 5.0 [11] [fold] | decreased affinity fold vs wildtype parent antibody produced in GS 5.0 [12] [fold] | fold change in affinity vs 1F11 IgG1 GS5.0 [13] [fold] | fold change in affinity vs 1F11 IgG1 GS5.0 [14] [fold] | IC50 [15] [µg/mL] | IC50 [16] [µg/mL] |
| --- | --- | --- | --- | --- | --- | --- | --- | --- | --- | --- | --- | --- | --- | --- | --- | --- |
| B1 | ~0.02 | ~0.4 | ~0.02 | ~0.4 | ~0.02 | ~0.06 | ~0.02 | ~0.08 | ~0.08 |  |  |  |  |  |  |  |
| B2 |  |  |  |  |  |  |  |  |  | 4 | 8 to 60 | 2 to 6 | 12 | 647 | 1.17 | 0.16 |
